How the values were obtained:
[1] = biological target: CifRTR (CifR C99T/C181R) (Pseudomonas aeruginosa); assay: SEC
[2] = biological target: CifRTR (CifR C99T/C181R) (Pseudomonas aeruginosa); assay: SEC + AUC
CifRTR [3] = biological target: T1, CifRTR (Pseudomonas aeruginosa, UniProt A0A0H2ZCS5 1-196, C99T;C181R); assay: EMSA
CifRTR [4] = biological target: T1, CifRTR; assay: EMSA; remark: listed apart in the source
CifRTR-C107S = CifRTR-C107S (Pseudomonas aeruginosa, UniProt A0A0H2ZCS5 1-196, C99T;C107S;C181R); assay: X-ray crystallography
CifRTR [5] = biological target: T1, CifRTR; assay: SEC

With “CifRTR (CifR C99T/C181R) (natural protein)” the stoichiometry N [1] was 2 and the stoichiometry N [2] was 2.

B1: cifR-prox dsDNA23 (dsDNA)
DNA 1: TATTTGTATCGATCACTATAAAT
DNA 2: ATTTATAGTGATCGATACAAATA
B1: binds (CifRTR [3]).

B2: cifR-prox dsDNA36 (dsDNA)
DNA 1: CCTCCATTATTTGTATCGATCACTATAAATTTACTT
DNA 2: AAGTAAATTTATAGTGATCGATACAAATAATGGAGG
B2: binds (CifRTR [4]).

B3: cifR-prox dsDNA26L (dsDNA)
DNA 1: TTATTTGTATCGATCACTATAAATTT
DNA 2: AAATTTATAGTGATCGATACAAATAA
B3: binds (CifRTR-C107S); binds (CifRTR [5]).

Reference: PMC10827105
